Experimental data from patent publication US20260166158A1, “HSP90-BINDING CONJUGATES AND FORMULATIONS THEREOF” (Fusion Pharmaceuticals Inc., priority 2019, published 2026).

Tested on: NCI-H460 tumor-bearing mice (lung cancer)
Test: Biodistribution: lutetium accumulation in tumor, plasma and healthy tissues by ICP-MS
Type: in vivo
Settings: 24 h; for Kidney uptake, % ID/g 24 h / Liver uptake, % ID/g 24 h / Plasma, % ID/g 24 h / Tumor uptake, % ID/g, 24 h: second table
Procedure: Lutetium accumulation was measured in tumor, plasma and healthy tissues of NCI-H460 tumor-bearing mice (lung cancer). NCJ-H460 tumor bearing mice were dosed with 0.5 mg/kg of lutetium conjugates. At the time points indicated, mice were sacrificed and tumor, liver, kidneys and plasma were taken. All tissues were analyzed for lutetium content by ICP-MS, and lutetium uptake in % ID/g determined by the following equation: […]
Biodistribution at 24 h and Tumor/Kidney ratio (T/K), Tumor/Liver ratio (T/L), Tumor/Plasma ratio (T/P) are give in the table below.

SMILES | T/K (Tumor/Kidney ratio) | T/L (Tumor/Liver ratio) | T/P (Tumor/Plasma ratio) | Kidney uptake, % ID/g 24 h [% ID/g] | Liver uptake, % ID/g 24 h [% ID/g] | Plasma, % ID/g 24 h [% ID/g] | Tumor uptake, % ID/g, 24 h [% ID/g]
CCNC(=O)c1nnc(-c2cc(C(C)C)c(O)cc2O)n1-c1ccc(CN2CCN(C(=O)CCOCCOCCOCCOCCNC(=O)CN3CCN4CCN5CCN6CC(=O)O[C]6(C3)[Lu]([O]C(=O)C4)[O]C(=O)C5)CC2)cc1 (stereo not shown) [CMP1] | 1.28 | 1.92 | 7.68 | 0.91 | 0.607 | 0.152 | 1.167
CCNC(=O)c1nnc(-c2cc(C(C)C)c(O)cc2O)n1-c1ccc(OC2CCN(C(=O)CCOCCOCCOCCOCCNC(=O)CC[C@@H](C(=O)O)N(CC)CCN3CCN4CCN(C)CC(=O)[O][Lu]([O]C(=O)C4)[O]C(=O)C3)CC2)cc1 [CMP2] | 2.12 | 1.98 | 2.51 | 0.438 | 0.469 | 0.369 | 0.927
CCNC(=O)c1nnc(-c2cc(C(C)C)c(O)cc2O)n1-c1ccc(CC2CCN(C(=O)CCOCCOCCOCCOCCOCCOCCOCCOCCOCCOCCOCCOCCNC(=O)[C@H](CCCCNC(=O)CCCc3ccc(I)cc3)NC(=O)CN3CCN4CCN5CCN(CC3)CC(=O)[O][Lu]([O]C(=O)C4)[O]C(=O)C5)CC2)cc1 [CMP3] | 3.38 | 2.39 | 0.84 | 5.13 | 7.26 | 20.57 | 17.36
CCNC(=O)c1nnc(-c2cc(C(C)C)c(O)cc2O)n1-c1ccc(CC2CCN(C(=O)CCOCCOCCOCCOCCNC(=O)[C@H](CCCCNC(=O)CCCc3ccc(I)cc3)NC(=O)CN(CC)CCN3CCN4CCN(C)CC(=O)[O][Lu]([O]C(=O)C4)[O]C(=O)C3)CC2)cc1 [CMP4] | 2.53 | 3.55 | 0.87 | 3.24 | 2.31 | 9.48 | 8.21
CCNC(=O)c1nnc(-c2cc(C(C)C)c(O)cc2O)n1-c1ccc(OC2CCN(C(=O)CCOCCOCCOCCOCCOCCOCCOCCOCCOCCOCCOCCOCCNC(=O)[C@H](CCCCNC(=O)CCCc3ccc(I)cc3)NC(=O)CN3CCN4CCN5CCN(CC3)CC(=O)[O][Lu]([O]C(=O)C4)[O]C(=O)C5)CC2)cc1 [CMP5] | 3.05 | 3.17 | 1.42 | 3.95 | 3.80 | 8.48 | 12.05
CCNC(=O)c1nnc(-c2cc(C(C)C)c(O)cc2O)n1-c1ccc(CC2CCN(C(=O)CCOCC(COCCC(=O)N3CCC(Cc4ccc(-n5c(C(=O)NCC)nnc5-c5cc(C(C)C)c(O)cc5O)cc4)CC3)NC(=O)CC[C@H](C(=O)O)N3CCN4CCN5CCN(CC3)CC(=O)[O][Lu]([O]C(=O)C5)[O]C(=O)C4)CC2)cc1 [CMP8] | 2.01 | 1.67 | 4.01 | 2.91 | 3.50 | 1.46 | 5.86
CCNC(=O)c1nnc(-c2cc(C(C)C)c(O)cc2O)n1-c1ccc(CC2CCN(C(=O)CCC(=O)N[C@@H](CCCCNC(=O)CN3CCN4CCN5CCN(CC3)CC(=O)[O][Lu]([O]C(=O)C4)[O]C(=O)C5)C(=O)N3CCC(Cc4ccc(-n5c(C(=O)NCC)nnc5-c5cc(C(C)C)c(O)cc5O)cc4)CC3)CC2)cc1 [CMP24] | 2.58 | 1.07 | 0.89 | 4.81 | 11.53 | 13.96 | 12.39
CCNC(=O)c1nnc(-c2cc(C(C)C)c(O)cc2O)n1-c1ccc(CC2CCN(C(=O)C[C@H](NC(=O)CN3CCN4CCN5CCN(CC3)CC(=O)[O][Lu]([O]C(=O)C4)[O]C(=O)C5)C(=O)N[C@H](C)C(=O)N3CCC(Cc4ccc(-n5c(C(=O)NCC)nnc5-c5cc(C(C)C)c(O)cc5O)cc4)CC3)CC2)cc1 [CMP27] | 1.13 | 0.50 | 1.53 | 6.66 | 14.98 | 4.89 | 7.50
CCNC(=O)c1nnc(-c2cc(C(C)C)c(O)cc2O)n1-c1ccc(CC2CCN(C(=O)C[C@H](NC(=O)CC[C@H](C(=O)O)N3CCN4CCN5CCN(CC3)CC(=O)[O][Lu]([O]C(=O)C5)[O]C(=O)C4)C(=O)N[C@H](C)C(=O)N3CCC(Cc4ccc(-n5c(C(=O)NCC)nnc5-c5cc(C(C)C)c(O)cc5O)cc4)CC3)CC2)cc1 [CMP28] | 0.90 | 0.79 | 1.13 | 8.90 | 10.10 | 7.11 | 8.01
CCNC(=O)c1nnc(-c2cc(C(C)C)c(O)cc2O)n1-c1ccc(C2CN(C(=O)CCOCCOCCOCCOCCNC(=O)CN3CCN4CCN5CCN(CC3)CC(=O)[O][Lu]([O]C(=O)C4)[O]C(=O)C5)C2)cc1 [CMP29] | 2.19 | 2.23 | 4.08 | 1.12 | 1.10 | 0.60 | 2.45
CCNC(=O)c1nnc(-c2cc(C(C)C)c(O)cc2O)n1-c1ccc(C2CCN(C(=O)CCOCCOCCOCCOCCNC(=O)CN3CCN4CCN5CCN(CC3)CC(=O)[O][Lu]([O]C(=O)C4)[O]C(=O)C5)CC2)cc1 [CMP30] | 2.57 | 0.62 | 2.75 | 0.76 | 3.16 | 0.71 | 1.95
CCNC(=O)c1nnc(-c2cc(C(C)C)c(O)cc2O)n1-c1ccc(CC2CCN(C(=O)CCOCCOCCOCCOCCNC(=O)CN3CCN4CCN5CCN(CC3)CC(=O)[O][Lu]([O]C(=O)C4)[O]C(=O)C5)CC2)cc1 [CMP31] | 5.00 | 2.30 | 5.19 | 0.84 | 1.83 | 0.81 | 4.20
CCNC(=O)c1nnc(-c2cc(C(C)C)c(O)cc2O)n1-c1ccc(C2CN(C(=O)CCOCCOCCOCCOCCOCCOCCOCCOCCOCCOCCOCCOCCNC(=O)CN3CCN4CCN5CCN(CC3)CC(=O)[O][Lu]([O]C(=O)C4)[O]C(=O)C5)C2)cc1 [CMP32] | 2.15 | 5.26 | 6.81 | 1.17 | 0.48 | 0.37 | 2.52
